Legend:
[1] = target: Subtilase cytotoxin B subunit (SubB), wild type (Escherichia coli) (UniProt Q6EZC3); experiment: SPR; Biacore T100; SubB or SubB mutant immobilised on a series S CM5 chip (flow cell 1 blank); AGP flowed over, 0.01-100 µM in range finding; single cycle kinetics
[2] = target: SubB ΔS106/ΔT107/E108D (Escherichia coli) (UniProt Q6EZC3); experiment: SPR
[3] = target: SubB ΔS106/ΔT107 (Escherichia coli) (UniProt Q6EZC3); experiment: SPR
[4] = target: SubB S106A/T107A (Escherichia coli) (UniProt Q6EZC3); experiment: SPR

human α1-acid glycoprotein (AGP) (from UniProt P02763 19-201) (natural protein)
Kd [1]: 2120 nM | Kd [2]: 2820 nM | Kd [3]: 1650 nM | Kd [4]: 723 nM
